Among the data in patent US20240101959A1, “USE OF IL-2R-BETA-GAMMA AGONIST PEPTIDES IN CELL MANUFACTURING” (MEDIKINE, INC., priority 2022, published 2024) are IC50 values, retold here.

Positions of bridges follow the written chain, without caps; N, C: chain ends. No end group written: not given here. Where only a bound is given, the exact number is not on record here.

T1: hu-IL-2Rβ subunit (human, UniProt P14784 27-240, limits assumed)
T1 construct: also called human interleukin-2 receptor subunit β; CD122
T1 sequence (looked up): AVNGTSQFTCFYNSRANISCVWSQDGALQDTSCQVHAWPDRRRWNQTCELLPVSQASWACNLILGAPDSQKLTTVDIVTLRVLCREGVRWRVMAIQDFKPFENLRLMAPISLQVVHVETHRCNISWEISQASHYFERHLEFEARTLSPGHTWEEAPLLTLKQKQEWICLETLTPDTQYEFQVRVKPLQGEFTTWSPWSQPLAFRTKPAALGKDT

For this experiment, the target named is T1, hu-IL-2Rβ subunit. Put plainly: phage ELISA competition assay.
With SEQWWPCWIARLGELCDLDRELSE [SEQ ID NO 116], the IC50 is less than 100 µM.
DGSWYTCWFTQLGEWCEQDDAK [SEQ ID NO 551] registered an IC50 of less than 100 µM.
In turn, WYPCWVAQLGEICDLEMTGPDSWYP [SEQ ID NO 117] showed an IC50 of less than 100 µM.
As to WYPCWMAQPGELCDVD [SEQ ID NO 146], the IC50 was less than 100 µM.
EFWGWQCWQEPLGWSCDLEWMD [SEQ ID NO 552] had an IC50 of less than 100 µM.
Next, NGAWYPCWMAQVGELCDLEERW [SEQ ID NO 124]: less than 100 µM; IGSWWPCWMAQLGELCDLEPEL [SEQ ID NO 154]: less than 100 µM; WYPCYRARLGELCDLD [SEQ ID NO 82]: less than 100 µM.
As for AKGWDTWKPCWLANLGELCDLE [SEQ ID NO 140], the figure is less than 100 µM; as for GTTWYPCWLAQLGELCDLDVLE [SEQ ID NO 155], less than 100 µM; as for YPCHMAQLGELCDLWSWGDI (not fully specified (bridges); cysteine pairing not given here) [SEQ ID NO 620], less than 10 µM.
Next, GEAWYPCWLARLGELCDMDPRV [SEQ ID NO 152]: less than 100 µM; VRPMGVWYPCWIAQLGELCDLV [SEQ ID NO 149]: less than 100 µM.
In turn, KMHKAVWLPCWMAQVGELCDLE [SEQ ID NO 132] displayed an IC50 of less than 100 µM.
Next, KLQSWRWYPCWMAQLGELCDLD [SEQ ID NO 135]: less than 100 µM.
As for WYTCMMDWLGVHCELE [SEQ ID NO 547], the figure is less than 100 µM; as for KSNFFPCWIAQLGQLCDLEPET [SEQ ID NO 121], less than 100 µM; as for YYPCWMAQLGELCDLE [SEQ ID NO 129], less than 100 µM.
The molecule WYPCWMAQLGELCDLDESTRLT (disulfide 4-13 (inferred)) [SEQ ID NO 153] gave an IC50 of less than 100 µM.
Next, LVDCFKVKVGELCDLF (not fully specified (bridges); cysteine pairing not given here) [SEQ ID NO 555]: less than 100 µM; WYPCWGELCDLD [SEQ ID NO 560]: less than 100 µM.
As for RQAWYPCWMAQLGELCDLEAEL [SEQ ID NO 126], the figure is less than 100 µM; as for QMVWWDCWSTQEGPVCELNWTA [SEQ ID NO 548], less than 100 µM; as for DFFHDCFFAKVGDLCDFFFG [SEQ ID NO 569], less than 100 µM.
The molecule YWCSVWQLGSVCEMNNEETQ [SEQ ID NO 549] returned a half-maximal inhibitory concentration (IC50) of less than 100 µM.
As for YPCWMAQLGELCDL [SEQ ID NO 621], the figure is less than 10 µM; as for WTCWLTQLGYDCNLDVVDQSLG [SEQ ID NO 550], less than 100 µM; as for EHFHDCFFAKVGDLCDIFGN [SEQ ID NO 571], less than 100 µM.
In the case of EHFHDCFFAKVGDLCDKFGQ [SEQ ID NO 572], the IC50 is less than 100 µM.
In turn, EGFHDCFFAKVGDLCDIFGH [SEQ ID NO 570] displayed a concentration for half-maximal inhibition (IC50) of less than 100 µM.
Next, HIFHDCFIAKVGDLCDLFHS [SEQ ID NO 573]: less than 100 µM.
As to QGPVRLWYPCWMAQLGELCDLD [SEQ ID NO 145], the 50% inhibitory concentration (IC50) was less than 100 µM.
Next, WQREWRWFPCWMAKLGDMCDLD [SEQ ID NO 83]: less than 100 µM; HWFLDCFLANVGDLCDFFGN [SEQ ID NO 540]: less than 100 µM.
Turning to NWFHDCFLARVGDLCDLFLD [SEQ ID NO 543], the IC50 is less than 100 µM.
As for YYPCWMARLGELCDLD [SEQ ID NO 85], the figure is less than 100 µM; as for EIFKDCLFANVGELCEIFPS [SEQ ID NO 542], less than 100 µM.
Take NWLPDCLFANVGELCDIFPW [SEQ ID NO 541]: the concentration for half-maximal inhibition (IC50) was less than 100 µM.
Next, DWLPDCYFANVGDLCSLFGS [SEQ ID NO 539]: less than 100 µM; AFFHDCFFAKAGDLCDFFDD [SEQ ID NO 568]: less than 100 µM.
Next, EFFHDCYVARVGELCDLFGW [SEQ ID NO 545]: less than 100 µM; VQYKKCWMAQLGDLCELDPS (not fully specified (bridges); cysteine pairing not given here) [SEQ ID NO 619]: less than 10 µM; VPRWYPCWIAQLGELCDLDSDD [SEQ ID NO 150]: less than 100 µM.
Next, HASWLPCWLAQLGELCDLEPNP [SEQ ID NO 123]: less than 100 µM; VHDCFIAQVGDLCDLF [SEQ ID NO 556]: less than 100 µM.
Consider WPCWLGELCDLD [SEQ ID NO 559], for which the IC50 is less than 100 µM.
As for NEPEGGFYPCWLAQLGELCDLH (disulfide 10-19 (inferred)) [SEQ ID NO 136], the figure is less than 100 µM.
As for SWHAETWYPCWLAQVGELCDLD [SEQ ID NO 131], the figure is less than 100 µM.
FYPCWMANLGELCDLDFLRELN [SEQ ID NO 122] displayed a 50% inhibitory concentration (IC50) of less than 100 µM.
The molecule WPCWALGELCDLD [SEQ ID NO 558] registered an IC50 of less than 100 µM.
SYLCWLDHWGVICEED (not fully specified (bridges); cysteine pairing not given here) [SEQ ID NO 546]: the IC50 is less than 100 µM.
Take NRRWYPCWMAQLGELCDLDSRP [SEQ ID NO 119]: the IC50 is less than 100 µM.
Take NNSREGWFPCWLAKLGDLCDLD [SEQ ID NO 128]: the IC50 is less than 100 µM.
Next, WPCWAALGELCDLD [SEQ ID NO 557]: less than 100 µM.
Turning to YSFKDCYFAKVGELCELFLW [SEQ ID NO 544], the 50% inhibitory concentration (IC50) is less than 100 µM.
The molecule QDGWLPCWMAQLGELCDLEYKR [SEQ ID NO 118] had an IC50 of less than 100 µM.
Next, RDESAGYYPCWIAQLGELCDLE [SEQ ID NO 141]: less than 100 µM; QDEAVEWFPCWMARLGELCDLE [SEQ ID NO 84]: less than 100 µM.
YRGWLPCWRAKLGDLCDLGQPM (disulfide 7-16 (inferred)) [SEQ ID NO 151]: the half-maximal inhibitory concentration (IC50) is less than 100 µM.
